Data taken from article PMC8428690.
Like-named read-outs stand apart in the source and are kept apart here.

Experiments:
[1] = biological target: H6-spTorA-mCherry (E. coli | not stated); experiment: SEC; substrate (~7 μM) mixed with TorD 1:1 or 1:2, 10 min at 37°C in FPLC buffer with 5 mM DTT, then Superdex 75 at 4°C; fractions analysed by anti-6xHis Western blot
[2] = biological target: H6-spTorA-mCherry (E. coli | not stated); experiment: SEC; fractions 19-21 of the purified 1:1 TorD/spTorA-mCherry complex pooled, centrifuged and at once re-run on the column (~2.3-3.5 μM total TorD); KD estimated from the ratio of the peaks
[3] = biological target: TorD-H6 (Escherichia coli TorD, 6xHis tagged) (E. coli) (UniProt P36662); experiment: SEC; Ni-NTA purified TorD alone, ~170 μM total load; Superdex 75 10/300 GL, FPLC buffer (5 mM MgCl2, 150 mM NaCl, 25 mM MOPS, 25 mM MES, 25% glycerol, pH 8.0), 5 mM DTT, 4°C; dimer to monomers, KD estimated from the monomer/dimer ratio
[4] = biological target: spTorA-GFP(Alexa532) (E. coli | not stated); experiment: co-sedimentation; competition, apparent KD: spTorA-GFP(Alexa532) 50 nM pre-incubated with various concentrations of TorD (10 min, 37°C), then with Tat++ IMVs (A280 = 5; 10 min, 37°C), pelleted (32,000 g, 4°C, 10 min); IMV-bound precursor by in-gel fluorescence; high-BSA translocation buffer
Chain of spTorA-GFP(Alexa532) (E. coli | not stated) (P33225 1-39, tags left off): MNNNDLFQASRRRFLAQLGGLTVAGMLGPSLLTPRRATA

[5] = biological target: spTorA-GFP(Alexa532) (E. coli | not stated); experiment: as above; remark: listed apart in the source

Chain of H6-spTorA-mCherry (E. coli | not stated) (P33225 1-39 limits assumed): as the sequence (P33225 1-39, tags left off) above

stoichiometry N [1]: 1 | Kd [2]: 1500 nM | Kd [3]: > 50000 nM | Kd [4]: 800 nM | Kd [5]: 1300 nM | percent inhibition of spTorA-GFP binding to Tat++ IMVs at ~1 μM TorD [5]: 50%
B1: TorD-H6 (Escherichia coli TorD, 6xHis tagged) (natural protein)
chain: MTTLTAQQIACVYAWLAQLFSRELDDEQLTQIASAQMAEWFSLLKSEPPLTAAVNELENRIATLTVRDDARLELAADFCGLFLMTDKQAALPYASAYKQDEQEIKRLLVEAGMETSGNFNEPADHLAIYLELLSHLHFSLGEGTVPARRIDSLRQKTLTALWQWLPEFVARCRQYDSFGFYAALSQLLLVLVECDHQNR
